Source: the RNAGym collection of RNA variant scans (doi:10.1073/pnas.2313332121)
Fewer inactive variants are shown than the library holds.

B1: TPR 5TU (parent)
chain: GGAUCUUCUCGAUCUAACAAAAAAGACAAAUCUGCCACAAAGCUUGAGAGCAUCUUCGGAUGCAGAGGCGGCAGCCUUCGGUGGCGCGAUAGCGCCAACGUUCUCAACUAUGACACGCAAAACGCGUGCUCCGUUGAAUGGAGUUUAUCAUG

Variants of: B1
Test: polymerase ribozyme fitness, log enrichment relative to wild type (log ratio); higher = more active; in vitro selection for triplet polymerase activity
How it was run: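 Each subunit of a heterodimeric triplet polymerase ribozyme was mutagenized into a library by PCR, transcribed, and subjected to one round of in vitro selection, run in triplicate. Libraries were annealed with a biotinylated primer, the partner subunit and triplets, incubated frozen at −7 °C, and extended constructs were gel-excised, captured on streptavidin beads and recovered by RT-PCR. Input and output libraries were sequenced on Illumina, keeping genotypes with ≥10 input reads and ≥1 read per output. Fitness is log base 2 of genotype enrichment divided by wild-type enrichment, from inverse-variance-weighted replicate averages.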

Going from C14U G50U to C14U G50C, the “polymerase ribozyme fitness (log ratio)” value falls from -1.15 to -3.52.

First: U15A A73C G94A
Second: U15A A47G U56A C57U G124C C149U
The “polymerase ribozyme fitness (log ratio)” value of the first is lower: -3.39 for the first, -2.48 for the second.

First: U15G A73U C93U A120G
Second: U15G A39G U53A
The “polymerase ribozyme fitness (log ratio)” value of the first is higher: -2.43 for the first, -4.01 for the second.

Going from C14U C18G C32G A66C C93U A98U to U15G A52U, the “polymerase ribozyme fitness (log ratio)” value rises from no more than -4.2 to -1.59.

Going from U15C A19C A91U to U15C C38U G86U A91U G126U U134G A142G, the “polymerase ribozyme fitness (log ratio)” value falls from -3.68 to no more than -4.2.

Compared with U15C A21C G48C C93U U146G, U15G C93U is lower in “polymerase ribozyme fitness (log ratio)” value: -0.835 for the first, -2.61 for the second.

C14U G92C A150U and U15G C27A U146A cannot be ordered by “polymerase ribozyme fitness (log ratio)” value: -4.2 for the first, no more than -4.2 for the second.

Going from U15G C57A G86U A122G to U15G C27U G84A, the “polymerase ribozyme fitness (log ratio)” value falls from -1.4 to -1.78.

C14U C27G A37U A39G A66C U77A U78G C85U A89U C95G and U15G G34U A107C A115U C118A U134C U135G A150G cannot be ordered by “polymerase ribozyme fitness (log ratio)” value: no more than -4.2 for the first, no more than -4.2 for the second.

U15G U55G G71C C85U A142U C149U and C14U C54U G68C G84C C87G A91C A147C cannot be ordered by “polymerase ribozyme fitness (log ratio)” value: no more than -4.2 for the first, no more than -4.2 for the second.

Going from C14U C18A A19C A22G C93A A120C U139C G143U to U15G C99U A142U, the “polymerase ribozyme fitness (log ratio)” value rises from no more than -4.2 to -1.77.

First: U15C C38U A49G C103G G141U
Second: U15C A16C C85U C118A
The “polymerase ribozyme fitness (log ratio)” value of the first is lower: no more than -4.2 for the first, -2.79 for the second.

U15G G46C C93A C95U and U15G A26G A52U U53A G65A G80U C87G C96G A97G C108G cannot be ordered by “polymerase ribozyme fitness (log ratio)” value: no more than -4.2 for the first, no more than -4.2 for the second.

Going from C14U A73U U78G C87G A122U C123U to U15A U55A G88C U145G, the “polymerase ribozyme fitness (log ratio)” value rises from no more than -4.2 to -3.86.

First: C14U G59A C85U U134A
Second: U15C A47C C54U A89U C95G
The “polymerase ribozyme fitness (log ratio)” value of the first is lower: -4.12 for the first, -2.01 for the second.

Going from U15G C18G A40U to U15A A49U A73G U82G A107U, the “polymerase ribozyme fitness (log ratio)” value falls from -1.5 to no more than -4.2.

C14G U15G C18G U55G G68A and U15G A20U G25U C87U C103G U104G A121G G126U U134C C149A cannot be ordered by “polymerase ribozyme fitness (log ratio)” value: no more than -4.2 for the first, no more than -4.2 for the second.

C14U C57A A89G C96U U101A G136U and U15A A29C C38U A119U G126A U144A C149G cannot be ordered by “polymerase ribozyme fitness (log ratio)” value: no more than -4.2 for the first, no more than -4.2 for the second.

U15G A26U A52G G83A U102G and U15G A52C C96U U101G C129A cannot be ordered by “polymerase ribozyme fitness (log ratio)” value: no more than -4.2 for the first, no more than -4.2 for the second.

A16C A17U A20U C38A C57U A60C G84A C116G and U15A C27G U55A C57G G94U C105U G136A G143U cannot be ordered by “polymerase ribozyme fitness (log ratio)” value: no more than -4.2 for the first, no more than -4.2 for the second.

U15C A17U A60G G62C A91U and C14U G67A G88A G136U cannot be ordered by “polymerase ribozyme fitness (log ratio)” value: no more than -4.2 for the first, no more than -4.2 for the second.

Going from C14U C93U U127A C131A to U15C C57G U82G G94A, the “polymerase ribozyme fitness (log ratio)” value rises from no more than -4.2 to 0.771.

Compared with U15A U145C, U15A A60G G80U C96U A122C is lower in “polymerase ribozyme fitness (log ratio)” value: 0.0727 for the first, -1.4 for the second.

First: C14U U31A A64C C75A C93G C103U
Second: C14U C76A C85U
The “polymerase ribozyme fitness (log ratio)” value of the first is lower: no more than -4.2 for the first, -2.67 for the second.

First: U15G C51A A52C C69U C85A
Second: C14U A47C G84A
The “polymerase ribozyme fitness (log ratio)” value of the first is lower: no more than -4.2 for the first, -2.49 for the second.

Compared with U15C A19C C85U C87U, U15G C51U A98U A115G G136A is lower in “polymerase ribozyme fitness (log ratio)” value: 0.246 for the first, -2.29 for the second.

Compared with U15C C93U A122U, U15G G71U is lower in “polymerase ribozyme fitness (log ratio)” value: -0.873 for the first, -2.28 for the second.

Compared with C14U C54U C57U C72U G83A, U15G G50C C69U C76A G84U is lower in “polymerase ribozyme fitness (log ratio)” value: -4.05 for the first, no more than -4.2 for the second.

Going from U15G C69A C96U to U15C A40U U53A G84C, the “polymerase ribozyme fitness (log ratio)” value falls from -1.09 to -1.96.

U15G A37U U55A U56C C87G C95U A106G G136A U145G and A16C A19U A73G C87A U148G G152U cannot be ordered by “polymerase ribozyme fitness (log ratio)” value: no more than -4.2 for the first, no more than -4.2 for the second.

U15G A49C G65C A120C A142C and C14G U56A C85G G92A cannot be ordered by “polymerase ribozyme fitness (log ratio)” value: no more than -4.2 for the first, no more than -4.2 for the second.

Compared with U15A G94A, U15C A20G A97G G140A is lower in “polymerase ribozyme fitness (log ratio)” value: -0.258 for the first, -3.64 for the second.

First: C14U C63U C85A A115G
Second: U15C U145C A150G
The “polymerase ribozyme fitness (log ratio)” value of the first is lower: -3.56 for the first, -0.684 for the second.

U15A A39C C123U A137C U151C and C14U G74A G94A A122G cannot be ordered by “polymerase ribozyme fitness (log ratio)” value: no more than -4.2 for the first, no more than -4.2 for the second.

U15G G46U G65A G68C C85U C116G and U15A C57U C63A G68A C87U A122U cannot be ordered by “polymerase ribozyme fitness (log ratio)” value: no more than -4.2 for the first, no more than -4.2 for the second.

C14G U82A G84A C87U C118G and C14U U56G G83U C95U C116U are within 0.2 log units of each other in “polymerase ribozyme fitness (log ratio)” value: -3.78 for the first, -3.87 for the second.

A16C A17G C57U G86A G133U and U15C G84C C125U U134G A150U cannot be ordered by “polymerase ribozyme fitness (log ratio)” value: no more than -4.2 for the first, no more than -4.2 for the second.

Going from U15G U31A to U15A A19C A29U G50A C95U A142U, the “polymerase ribozyme fitness (log ratio)” value falls from 0.571 to no more than -4.2.

First: C14G U77G A97U U111C
Second: U15C C36G
The “polymerase ribozyme fitness (log ratio)” value of the first is lower: -4.01 for the first, -3.28 for the second.

First: U15G A21U A39G A47G G83A A142G
Second: C14G U31A G136A
The “polymerase ribozyme fitness (log ratio)” value of the first is lower: -3.92 for the first, -2.23 for the second.

First: U15C C54A G59A G84U A106G U146G
Second: U15G C116U
The “polymerase ribozyme fitness (log ratio)” value of the first is lower: -2.98 for the first, 0.239 for the second.

With C14U A16C C57G G83U C85U A107G G140C A142C the “polymerase ribozyme fitness (log ratio)” value was no more than -4.2.
